We go through two sequences from PMC6058493.

Series [1] concerns the target prostate-specific membrane antigen (PSMA) (UniProt Q04609). The experiment in a line: competition (flow cytometry, confocal microscopy). The conditions noted are these: 2'-fluoro pyrimidines; 3'-spacer-NH2 as purchased; cells incubated 30 min at room temperature, washed 3x with PBS; buffer, salt and pH of incubation not stated; scale: % cells bound by aptamer nanobubbles with excess free aptamer. Background: A flow cytometer gives signals particle by particle.
Sequence of UniProt Q04609 (Q04609 whole entry): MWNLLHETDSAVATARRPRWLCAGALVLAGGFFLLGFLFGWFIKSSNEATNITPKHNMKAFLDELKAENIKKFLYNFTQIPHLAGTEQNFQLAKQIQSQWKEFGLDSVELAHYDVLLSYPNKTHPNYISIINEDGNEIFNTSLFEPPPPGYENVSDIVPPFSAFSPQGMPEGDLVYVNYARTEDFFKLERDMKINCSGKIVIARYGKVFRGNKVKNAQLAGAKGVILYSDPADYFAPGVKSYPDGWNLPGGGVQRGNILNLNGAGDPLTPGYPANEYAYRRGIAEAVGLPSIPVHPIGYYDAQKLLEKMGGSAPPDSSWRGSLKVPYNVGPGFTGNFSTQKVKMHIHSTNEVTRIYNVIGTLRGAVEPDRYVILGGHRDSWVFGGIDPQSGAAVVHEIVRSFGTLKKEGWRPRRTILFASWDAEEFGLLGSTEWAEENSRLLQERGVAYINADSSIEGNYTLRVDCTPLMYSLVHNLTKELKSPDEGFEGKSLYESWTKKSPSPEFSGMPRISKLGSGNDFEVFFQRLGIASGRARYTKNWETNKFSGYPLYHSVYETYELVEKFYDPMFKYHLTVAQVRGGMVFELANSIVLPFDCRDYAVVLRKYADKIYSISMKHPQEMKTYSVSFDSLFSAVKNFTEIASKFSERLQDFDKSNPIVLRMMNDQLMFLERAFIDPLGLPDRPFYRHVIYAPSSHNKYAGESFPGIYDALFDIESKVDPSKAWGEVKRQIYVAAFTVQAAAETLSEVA

Series [2] has the same target. As to the kind of experiment: flow cytometry and confocal microscopy on LNCaP cells. The conditions noted are these: 2'-fluoro pyrimidines; 3'-spacer-NH2; cells incubated 30 min at room temperature, washed 3x with PBS; buffer, salt and pH of incubation not stated.

Take “GGGAGGACGAUGCGGAUCAGCCAUGUUUACGUCACUCCU [A10-3.2 aptamer (free competitor)]”: in series [1], the binding signal worked out at 4.07.
Regarding “GGGAGGACGAUGCGGAUCAGCCAUGUUUACGUCACUCCU [A10-3.2 aptamer on siFoxM1-Apt-CNBs]”, in series [2], the binding signal (% cells bound) turned out to be 82.4.
